Measured values published in publication PMC8518580.

What follows are substances tested on NbeEF1A (eEF1A) (Nicotiana benthamiana) (assay: MST). Conditions: EMSA: LightShift REMSA kit, 30 min, 25 °C, 5% native PAGE (buffer not given); MST: Monolith NT.115, RED-labelled NbeEF1A, labelling in PBS, temperature not ….
For RNA2 3'-UTR del3407-3569, the Kd was 997 nM. Work on RNA2 3'-UTR del3174-3406 yielded a Kd of 68.5 nM. With CWMV RNA1 (+) 3'-UTR the Kd was 7.32 nM. With CWMV RNA2 (+) 3'-UTR the Kd was 12.5 nM. RNA1 3'-UTR del6730-6987 gave a Kd of 67.7 nM. RNA1 3'-UTR del6988-7147 gave a Kd of 964 nM.

Test system: NbeEF1A (eEF1A) (Nicotiana benthamiana)
Experiment: MST
Conditions: EMSA: LightShift REMSA kit, 30 min, 25 °C, 5% native PAGE (buffer not given); MST: Monolith NT.115, RED-labelled NbeEF1A, labelling in PBS, temperature not …
Remark: another data set of the same source
CWMV RNA2 (+) 3'-UTR was tested, and the Kd was 6.51 nM. With RNA2 3'-UTR dSL-1 (del3419-3429) the Kd was 117 nM. Work on RNA2 3'-UTR dSL-2 (del3469-3471) yielded a Kd of 91.7 nM. Work on RNA2 3'-UTR dSL-5 (del3532-3535) yielded a Kd of 36 nM. RNA2 3'-UTR dSL-4 (del3505-3509) gave a Kd of 113 nM. In the case of RNA2 3'-UTR dSL-6 (del3561-3565), the Kd is reported as 998 nM. RNA2 3'-UTR dSL-3 (del3500-3503) was tested, and the Kd was 33.5 nM.

The substances below were run on NbeEF1A (eEF1A) (Nicotiana benthamiana) (assay: EMSA). Conditions: EMSA: LightShift REMSA kit, 30 min, 25 °C, 5% native PAGE (buffer not given); MST: Monolith NT.115, RED-labelled NbeEF1A, labelling in PBS, temperature not ….
Substance RNA2 3'-UTR dSL-6 (del3561-3565) has a binding signal (% of WT 3'-UTR) of 6.
